Legend:
cytochrome C = cytochrome C (human, UniProt P99999 2-105); assay: immunopurification of cytochrome C from transfected HBL-100 cells, quantified immunoblot for APAF-1
Method: Immunoblots were quantified using a Kodak 4000 Imaging Station and software. […] Values were obtained from three independent experiments.
HBL-100 and MCF-7 cells were exposed to UV light (6,600 microwatt seconds per square centimeter), or treated with adriamycin (0.2 μg ml⁻¹) for 24 h. […] Immunoblots shown were quantified on a Kodak 4000 Imaging Station and software.

p53 = p53 (human, UniProt P04637 1-393); assay: cell-based or functional assay
Chain of p53 (P04637 whole entry): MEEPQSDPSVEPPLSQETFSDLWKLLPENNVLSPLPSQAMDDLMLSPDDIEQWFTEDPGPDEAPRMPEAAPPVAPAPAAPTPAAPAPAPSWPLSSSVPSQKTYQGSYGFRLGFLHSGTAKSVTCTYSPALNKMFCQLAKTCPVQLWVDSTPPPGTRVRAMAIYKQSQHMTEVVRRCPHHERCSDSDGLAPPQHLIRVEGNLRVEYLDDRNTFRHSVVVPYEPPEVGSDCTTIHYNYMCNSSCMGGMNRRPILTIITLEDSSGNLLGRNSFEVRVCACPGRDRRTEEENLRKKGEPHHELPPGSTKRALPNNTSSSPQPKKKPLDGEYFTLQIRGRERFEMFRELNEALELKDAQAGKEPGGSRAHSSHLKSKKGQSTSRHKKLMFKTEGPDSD

Chain of cytochrome C (P99999 2-105 limits assumed): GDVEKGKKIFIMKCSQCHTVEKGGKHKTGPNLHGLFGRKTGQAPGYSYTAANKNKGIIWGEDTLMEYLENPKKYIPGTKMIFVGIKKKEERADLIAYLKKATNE

| fold increase of APAF-1 associated to cytochrome C (cells expressing BRCA1 (772-1292) against cells expressing control BRCA1 wt or BRCA1 (772-1036)) (cytochrome C) | expression of p21 (immunoblot of immunopurified p21), HBL-100 cells (p53) | percentage of cells in apoptosis (annexin-V-FITC binding), HBL-100 cells (p53) | Binder |
| --- | --- | --- | --- |
| 3 fold | – | – | APAF-1 (other, human, UniProt O14727 1-1248, looked up) MDAKARNCLLQHREALEKDIKTSYIMDHMISDGFLTISEEEKVRNEPTQQQRAAMLIKMILKKDNDSYVSFYNALLHEGYKDLAALLHDGIPVVSSSSGKDSVSGITSYVRTVLCEGGVPQRPVVFVTRKKLVNAIQQKLSKLKGEPGWVTIHGMAGCGKSVLAAEAVRDHSLLEGCFPGGVHWVSVGKQDKSGLLMKLQNLCTRLDQDESFSQRLPLNIEEAKDRLRILMLRKHPRSLLILDDVWDSWVLKAFDSQCQILLTTRDKSVTDSVMGPKYVVPVESSLGKEKGLEILSLFVNMKKADLPEQAHSIIKECKGSPLVVSLIGALLRDFPNRWEYYLKQLQNKQFKRIRKSSSYDYEALDEAMSISVEMLREDIKDYYTDLSILQKDVKVPTKVLCILWDMETEEVEDILQEFVNKSLLFCDRNGKSFRYYLHDLQVDFLTEKNCSQLQDLHKKIITQFQRYHQPHTLSPDQEDCMYWYNFLAYHMASAKMHKELCALMFSLDWIKAKTELVGPAHLIHEFVEYRHILDEKDCAVSENFQEFLSLNGHLLGRQPFPNIVQLGLCEPETSEVYQQAKLQAKQEVDNGMLYLEWINKKNITNLSRLVVRPHTDAVYHACFSEDGQRIASCGADKTLQVFKAETGEKLLEIKAHEDEVLCCAFSTDDRFIATCSVDKKVKIWNSMTGELVHTYDEHSEQVNCCHFTNSSHHLLLATGSSDCFLKLWDLNQKECRNTMFGHTNSVNHCRFSPDDKLLASCSADGTLKLWDATSANERKSINVKQFFLNLEDPQEDMEVIVKCCSWSADGARIMVAAKNKIFLFDIHTSGLLGEIHTGHHSTIQYCDFSPQNHLAVVALSQYCVELWNTDSRSKVADCRGHLSWVHGVMFSPDGSSFLTSSDDQTIRLWETKKVCKNSAVMLKQEVDVVFQENEVMVLAVDHIRRLQLINGRTGQIDYLTEAQVSCCCLSPHLQYIAFGDENGAIEILELVNNRIFQSRFQHKKTVWHIQFTADEKTLISSSDDAEIQVWNWQLDKCIFLRGHQETVKDFRLLKNSRLLSWSFDGTVKVWNIITGNKEKDFVCHQGTVLSCDISHDATKFSSTSADKTAKIWSFDLLLPLHELRGHNGCVRCSAFSVDSTLLATGDDNGEIRIWNVSNGELLHLCAPLSEEGAATHGGWVTDLCFSPDGKMLISAGGYIKWWNVVTGESSQTFYTNGTNLKKIHVSPDFKTYVTVDNLGILYILQTLE |
| – | 5 fold | > 10 fold | HA-tag-BRCA1 (772-1292) (other, not shown: small tags and cut ends) VPGTDYGTQESISLLEVSTLGKAKTEPNKCVSQCAAFENPKGLIHGCSKDNRNDTEGFKYPLGHEVNHSRETSIEMEESELDAQYLQNTFKVSKRQSFAPFSNPGNAEEECATFSAHSGSLKKQSPKVTFECEQKEENQGKNESNIKPVQTVNITAGFPVVGQKDKPVDNAKCSIKGGSRFCLSSQFRGNETGLITPNKHGLLQNPYRIPPLFPIKSFVKTKCKKNLLEENFEEHSMSPEREMGNENIPSTVSTISRNNIRENVFKEASSSNINEVGSSTNEVGSSINEIGSSDENIQAELGRNRGPKLNAMLRLGVLQPEVYKQSLPGSNCKHPEIKKQEYEEVVQTVNTDFSPYLISDNLEQPMGSSHASQVCSETPDDLLDDGEIKEDTSFAENDIKESSAVFSKSVQKGELSRSPSPFTHTHLAQGYRRGAKKLESSEENLSSEDEELPCFQHLLFGKVNNIPSQSTRHSTVATECLSKNTEENLLSLKNSLNDCSNQVILAKASQEHHLSEETKCS |
